According to patent US9951128B2, “Caninized anti-NGF antibodies and methods thereof” (ZOETIS SERVICES LLC, priority 2012, dated 2018):
Residue numbers refer to the chain shown, from its start. Numbers in names are those of the source. Where two headings read alike, the source gives them in different places.

How the values were obtained:
canine NGF = assay: SPR (Biacore T100) binding of anti-NGF mAbs to canine NGF
Text: As used herein, the term “affinity” refers to the strength of the binding of a single antigen-combining site with an antigenic determinant. Affinity depends on the closeness of stereochemical fit between antibody or antigen binding protein combining sites and antigen determinants, on the size of the area of contact between them, on the distribution of charged and hydrophobic groups, etc. Antibody affinity can be measured by equilibrium analysis or by the Surface Plasmon Resonance—“SPR” method (for example BIACORE™. The SPR method relies on the phenomenon of surface plasmon resonance (SPR), which occurs when surface plasmon waves are excited at a metal/liquid interface. Light is directed at, and reflected from, the side of the surface not in contact with sample, and SPR causes a reduction in the reflected light intensity at a specific combination of angle and wavelength. Bimolecular binding events cause changes in the refractive index at the surface layer, which are detected as changes in the SPR signal.
The generation of anti-drug antibodies (ADAs) can be associated with loss of efficacy for any biotherapeutic protein including monoclonal antibodies. Comprehensive evaluation of the literature has shown that speciation of monoclonal antibodies can reduce the propensity for mAbs to be immunogenic although examples of immunogenic fully human mAbs and non-immunogenic chimeric mAbs can be found. To help mitigate risks associated with ADA formation for the mouse anti-NGF, RN911, monoclonal antibody provided herein, a caninization strategy was employed. This caninization strategy is based on identifying the most appropriate canine germline antibody sequence for CDR grafting (FIG. 3). Following extensive analysis of all available canine germline sequences for both the heavy and light chains, germline candidates were selected on their homology to RN911, and the CDRs from RN911 were used to replace native canine CDRs. The objective was to retain high affinity and cell-based activity using fully canine frameworks to minimize the potential of immunogenicity in vivo. Caninized mAbs were optimized for mammalian expression, expressed and characterized for their ability to bind NGF via SPR. […] Only mAbs that retained both reliable expression levels and the ability to bind NGF following caninization were advanced for further characterization.
(§1) Affinities of each caninized anti-NGF antibody to canine NGF were measured using SPR (Surface Plasmon Resonance). In addition, a functional in vitro assay was developed to measure inhibition constants for the mAbs ability to inhibit binding of NGF to TrkA. […] Some affinity was lost, however, upon caninization to mAb CAN-N2G9-VH, CAN-E3M. Due to this loss of affinity, the caninized mAb was affinity matured (see Example 5 for details) to regain potency. Included in FIGS. 12 and 13 are the results of the affinity matured products, SSM57 (SEQ ID NO. 27 “CAN-SSM57-VH”, SEQ ID NO. 26 “CAN-SSME3M-VL”), SSM58 (SEQ ID NO. 28 CAN-SSM58-VH, SEQ ID NO. 26 “CAN-SSME3M-VL”), and SSM66 (SEQ ID NO.29 CAN-SSM66, SEQ ID NO. 26 CAN-SSME3M-VL) on each SPR assay.
SPR on the supernatants were performed as an initial screen, good binders were purified, and pure mAb was again run via SPR to measure binding to canine NGF (TABLE 5). Constructs LTM109 and LTM135 were chosen to progress based on binding affinities.
Various KD's correspond to different sensors, surface density varies slightly.
Mutated antibodies were expressed in HEK293 cells and evaluated for binding affinities to canine NGF (results below; expression results in Tables 7-9).

[1] = tested on: NGF binding to receptor trkA; assay: Functional in vitro assay: inhibition of NGF binding to TrkA (pre-incubated mAb+NGF); format: biochemical
Experimental: FIGS. 12A and B is a graphical representation of affinity data of caninized mAb (left). (Right) trkA inhibition data with pre-incubated mAb+NGF. (Bottom)
as §1

[2] = tested on: beagle (LPS-induced) synovitis pain model; assay: Dog LPS-induced synovitis pain model, lameness by visual analogue scale; format: in vivo; conditions: synovitis induced 7 and 28 days post-dose
Experimental: PK/PD data were generated with RN911 in the target species in a synovitis efficacy study. In the synovitis pain model, transient inflammation of the synovial membrane in a single stifle is induced via intra-articular injection of bacterial lipopolysaccharide (LPS). Quantifiable lameness occurs within 2h of synovitis induction, peaks at 3-4h, is waning by 6h and is fully resolved after 24h. From an IACUC perspective, it is acceptable to induce synovitis on two separate occasions (i.e., once in each stifle), provided the lameness associated with the first synovitis induction has fully resolved. Therefore we designed a study in which synovitis was induced in the same beagle 3 days and 7 days after IV treatment (RN911 or PBS vehicle). After each synovitis induction, lameness was quantified using a visual analogue scale (VAS).
At this time, the free RN911 serum concentrations averaged 24400±3900 ng/mL (170±27 nM; FIG. 2).
Caninized mAb (CAN-SSME3M-VL, CAN-SSM57-HC) was tested in dog synovitis model at 5 mg/kg IV and 5 mg/kg SC. Results of study are shown in FIG. 14, inducing synovitis at 7 days and 28 days post-dose.

[3] = tested on: rat MIA model of osteoarthritis; assay: Rat MIA osteoarthritis model, weight bearing test; format: in vivo, Rat Ola Wistar; conditions: dosed on study day 7 and study day 14
Experimental: Osteoarthritis (OA) is a degenerative joint disease characterized by joint pain and a progressive loss of articular cartilage. Intra-articular injection of MIA induces loss of articular cartilage with progression of subchondral bone lesions that mimic those of OA. This model offers a rapid and minimally invasive method to reproduce OA-like lesions in a rodent species.
Pain was assessed using weight bearing test for sustained pain and joint compression (Randall Selitto) test for mechanical hyperalgesia. See FIG. 17 for a schematic of the rat MIA procedure.
This training regime was required as it was anticipated that the level of variability within the experiment is relatively high. […]
Weight bearing deficits were measured in all rats on study day −1, this measurement served as a baseline. Weight bearing was then recorded on study days 9, 16, 21 and 28. […]
The weight bearing of each leg was measured separately by weight bearing apparatus (IITC, Series 8, Model 600®). This test quantifies the spontaneous postural changes reflecting spontaneous pain by independently measuring, on two separate sensors, the weight that the animal applies on each hind paw.
Results were calculated and represented as the percentage of weight that the animal leaned on the injected right leg or intact left leg from the total amount of leaned weight on the two hind legs. […]

[4] = canine NGF, 1:1 Binding fit, Table 9

canine NGF, sequence (as listed by the source): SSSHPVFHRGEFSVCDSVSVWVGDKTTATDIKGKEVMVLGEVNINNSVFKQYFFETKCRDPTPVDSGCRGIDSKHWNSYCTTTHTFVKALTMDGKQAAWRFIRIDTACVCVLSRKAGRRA
NGF binding to receptor trkA, sequence (as listed by the source): as above

B1: CanE3M 65112: caninized RN911 mAb: CAN-N2G9-VH (SEQ ID NO. 17), CAN-E3M-VL (SEQ ID NO. 16), CAN-65E-HC, CAN-KAPPA-LC (antibody, V domains shown)
VH: EVQLVESGGDLARPGGSLKLSCVVSGFSLIGYDINWVRQAPGKGLQWVTMIWGDGTTDYNSALKSRFTVSRDNAMNTVYLQMNSLRVEDTAVYYCARGGYYYGTSYYFDYWGQGTLVTVSS
VL: DIVMTQTPLSLSVSPGETASISCRASQDISNHLNWFRQKPGQSPQRLIYYISRFHSGVPDRFSGSGSGTDFTLRISRVEADDTGVYYCQQSKTLPYTFGAGTKLEIK
modifications: canine constant regions without entries; canine
Canine NGF; Dog NGF, Biacore T100, purified mAb, run 11/8 (different sensors), read-out: KD (M) 11/8
  Kd: 3.35e-09 M
Canine NGF; Dog NGF, Biacore T100, purified mAb, run 11/22 (different sensors), read-out: KD (M) 11/22
  Kd: 1.46e-09 M
Canine NGF; Dog NGF, Biacore T100, purified mAb, run 11/24 (different sensors), read-out: KD (M) 11/24
  Kd: 2.35e-09 M
Canine NGF; Dog NGF, Biacore T100, purified mAb, run 11/29 (different sensors), read-out: KD (M) 11/29
  Kd: 3.51e-09 M
Canine NGF; SPR
  Binding of mAbs to NGF (FIGS. 12 and 13): high affinity binding
Canine NGF; [4]
  ka: 17200 M⁻¹ s⁻¹
  kd: 8.11e-05 s⁻¹
Canine NGF; canine NGF, 1:1 Binding fit, Table 9, read-out: KD
  Kd: 4.7e-09 M
Canine NGF; expressed in HEK 293
  Binding to canine NGF after caninization / framework substitution: retained NGF binding
[1]
  Inhibition by mAbs of NGF binding to receptor trkA: potent inhibition

B2: SSM66: affinity matured caninized mAb: CAN-SSM66-VH (SEQ ID NO. 29), CAN-SSME3M-VL (SEQ ID NO. 26) (antibody, V domains shown)
VH: B1 VH with G31E, D54T, Y101W, G103A
VL: B1 VL with D28S, H32N, R53S, K92H
modifications: canine
Canine NGF
  Binding affinities to canine NGF among SSM mutated antibodies: highest affinities

B3: SSM57: affinity matured caninized mAb: CAN-SSM57-VH (SEQ ID NO. 27), CAN-SSME3M-VL (SEQ ID NO. 26) (antibody, V domains shown)
VH: B1 VH with G31Q, Y101W, G103A
VL: B1 VL with D28S, H32N, R53S, K92H
modifications: canine
[2]; 5 mg/kg IV
  Efficacy in dog synovitis model: showed efficacy
[2]; 5 mg/kg SC
  Efficacy in dog synovitis model: showed efficacy
Canine NGF
  Binding affinities to canine NGF among SSM mutated antibodies: highest affinities
[3]
  Analgesic effect in the rat MIA model of osteoarthritis: demonstrated

B4: SSM58: affinity matured caninized mAb: CAN-SSM58-VH (SEQ ID NO. 28), CAN-SSME3M-VL (SEQ ID NO. 26) (antibody, V domains shown)
VH: B1 VH with G31E, Y101W, G103A
VL: B1 VL with D28S, H32N, R53S, K92H
modifications: canine
Canine NGF
  Binding affinities to canine NGF among SSM mutated antibodies: highest affinities
